Assay: yeast display, Sf9 membrane polyspecificity reagent, FACS + sequencing; frameworks hold sequencing errors
Outline: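 Nanobodies came from a synthetic yeast display library in Saccharomyces cerevisiae BJ5465, induced with galactose for 36–48 hours and stained for 1 hour at 4 °C with 10% biotinylated, detergent-solubilized Sf9 membrane reagent. Cells were enriched on streptavidin microbeads and then FACS-sorted, with low and high (top ~1%) gates set on anti-HA fluorescence for expression and streptavidin fluorescence for reagent binding. Each polyreactivity label reflects the gate a clone came from. Genes were amplified by colony PCR, sequenced by MiSeq 2 × 250 and filtered by CDR length.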

Sequence | polyreactivity (PSR sort gate)
EEELVESGGGLVQAGGSLRLSCAASGRTFVYNAMGWYRQAPWKERELVAAITSGDSTYYADSVKGRFTISRDNAKNTVYLQMNSLKPEDTAVYYCATDYSGIFYWYDYWGQGTQVTVSS | low polyreactivity
EEELVESGGGLVQAGGSLRLSCAASGSIFYYNAMGWYRQAPGKERELVAAISRGGTTNYADSVKGRFTISRDNAKNTVYLQMNSLKPEDTAVYYCAAKAYDYYGPVYYWGQGTQVTVSS | high polyreactivity
EEELVESGGGLVQAGGSLRLTCAASGFIFAYNAMGWYRQAPGKEREFVAAISRSGGSTYYADSVKGRFTISRDNAKNTVYLQMNSLKPEDTAVYYCAARRSVGGYGYWGQGTQVTVSS | high polyreactivity
EEELVESGGGLVQAGGSSLRLSCAASGFIFVSNAMGWYRQAPGKERELVASIRWSDGSTFYADSVKGRFTISRDNAKNTVYLQMNSLKPEDTAVYYCNAVYEHRRVGWVTIDYGYWGQGTQVTVSS | low polyreactivity
EVHLLESGGGLVQAGGSLRLSSAASGFTFACNAMGWYRQAPGKERELVAALTWGDNSTYYADSVKGRFTISRDNAKNTVYLQMNSLKQEDTAVYYCGARVTHWYYLFGYDYWGQGTQVTVSS | low polyreactivity
EVQLVESGGGLVQAGGSLRLSCAASGFFYPNNAMGWYRQAPGKERELVARISYGGGDTHYADSVKGRFTISRDNAKNTVYLQMNSLKPEDTAVYYCAVKDGQDDYWGQGTQVTVSS | low polyreactivity
EVQLVESGGGLVQAGGSLRLSCAASGRIFYTNTMGWYRPAPGKERELVATGSTYYADSVKGRFTISRDNAKNTVYLQMDSLKPEDTAVYYCAKRGDFLTKRYESGSAASDYLGQGTQVTVSS | low polyreactivity
EVQLVESGGGLVQAGGSLRLSCAASGRTIGFNGMAWYRQAPGKERELFAAITRSGGNTYADSVKGRFTISRDNAKNTVYLQMNSLNPEDSAVYYCATTYVGETLTGPGDYWGQGTQVTVSS | low polyreactivity
EVQLVESGGGLVQPGGILRVSCAASGYIYSRYRKGWYRQAPGKRREFVAAISGGSSTNYADSVKGRFTISRDNSKKTVYLQMNSLRAEDTAVYYCADSKIDSDPRVYWGQGYQVTVSS | low polyreactivity
EVQLVESGGGLVQTGGSLRLSCAASGYIYSRYRMGWYRQAPGKGREIVAAISGGSSTNYADSVKGRFTISRDNSNNTVYLQMNSLRAEDTAVYYCAAYKIDSDTRVYWGQGTQVTVSS | low polyreactivity
EVQLVESGGGVDQAVGSLRLSCAASGSIFLFYARGWYRQARGKEMELVARISFRSTSTYYADSVKGRFTISLDNAKYTVSLQMNSLKPEDTAVYYCATRTWYGYLYDYWGQGTQVTVSS | high polyreactivity
EVQLVESGVGLVQAGGSLRLSCAASASIFLSYAMGCYRQAPGKVRELVDAISRRGGSTYYADSVKGRFTISRDFAKNTVYLQMNSLKPEDTAVYYCAADLTGPYDYWGQGTQVTVSS | high polyreactivity
EVQRVESGGGLVQAGCSLRLSCAASGINFSIYAMGWYRQAPGKERELVADITYSGGRTYYADSVKGRFTISRDNAKNTVYLQLYSLKPEDTAVYYCAAVGYGDYYWGQGTQVTVSS | high polyreactivity
HDQLVESGGGLLQAGGSLRLSCAASGITLYRYVMGWYRQAPGKERELVAYIAGRGTSTYYSDSVKGRFTISRDHAKNTVYLQMNSLKPEDTAVYFCNAEYTKTGALVIPYTYYYAEDYWGQGTQVTVSS | low polyreactivity
HDQLVESGGGLVQAGGSLRLSCAASGFTFLDYAMGWSRKAPGKERELVASISSSGGSTRYADSVKGRFTISRDNAKNTVYLQMKSLKPQDTAVYYCNAQIAEVPNDYWGQGTPVTVSS | low polyreactivity
HDQLVETGGGLVQAGGSLRLSCAASGFTFRAYAMGWYRQAPGKEREFVAAISRRGGSTSYADSVKGRFTISRDNAKNTVYLQMNSLKPEDTAVYYCAATYQILTTSAHDSWGQGTQVTVSS | high polyreactivity
HDQRVESGGGLVQAGGSLRLSCAASGITFASYAMGWYRQAPGKDRELVAAISWGGSRTYYADSVKGRFTISRDTAKISVYLQMNSLKPEDTAVYYCNAHTRYGPDYSYYYWGQGTQVTVSS | high polyreactivity
HGQLVESAAGLVQAGGSLRLSGAASGLIFYDNMGWYRQAPAKDRELVAAISSSGGSTSYADSVKGRFTISRDNAKNTFYLQMNSLKPEDTAVYYCAADSYPAYLGFVGFDYWGLGTQVTVSS | low polyreactivity
HGQLVESGGGLVQAGGSLRLSCAASGSHLSNYAMGWYREAPGKERELVAAISLSVGSTYYADSVKGRFTISRDNAKNTVYLQMNSLKPEDTAVYYCAADDFYSGPFRGDYWGQGTQVTVSS | low polyreactivity
HLHLPERVGGLVHAGGSLRLSSAASGYISWAGYMGWYRQPPGKERELVATISYGTSTSYADSVKGRFTISRDNAKNSVYLQMNSLKPEDSAVYYCNADWVFTWYDYPNDKYDYWGQGTQVTVSS | low polyreactivity
HVKLVESGGGLVQAGGCLRLSCAASGSNFFHNAMGWYRQAPGKERELVATISWRSASTYYADSVKGRFTISRDNAKKTVYLQMNSLKPEDTAVYYCAAKLHYRQYYYRYGYDYWGQGTQVTVSS | high polyreactivity
HVPLVESGGGLVQAGGSLRLSCAASGFTFRANGMGWYRQAPGKERELVATIPSGGTTNYADSVKGRFTISRDNAKKTVYLQMNSLKPEDNAVYDCAASLGANGFQGRMYYWGQGTQVTVSS | low polyreactivity

Sequence | polyreactivity (PSR sort gate)
HVQHVESGGGLVQAGGSLRLSCAASGLIFGVNAMGWYRQAPGKERELVATITSGTSTYYADSVKGRFTISRDNAKNTVYLQMNSLKPEDNAVSYCAVRNGDSWYYYWGQGTQVTVSS | low polyreactivity
HVQHVESGGGLVQAGGSLRVSCAASGSTFYYNAMGWYRQAPGKERELVARISRSGASTYYADSVKGRFTISRDIAKNSVYLQMNSLKPEDTAVYYCATRNLGHERWYYYWGQGTQVTVSS | high polyreactivity
HVQLEESGGGLVQAGGSLRLSFAASGSIRKYYAMGSYIQAPAKERELDAAISGSGSTTYYADSVKGRFTISRDNAKNTVYLELNSLKPEDTAVYYCAAVYAFGNRYAYGSDSWGQGTQVTVSS | low polyreactivity
HVQLEESGVGLVQAGGSLRVSCAASGSTFGYYRMGGYRQAPGKERELVAAISWRGGSTYYADSVKGRFTISRDNAMNTVYCQMNSLKPEDTAVYYCAAPVGNYGSIDYWGQVTQVTVSS | low polyreactivity
HVQLQESGGGLVQAGGSLRLSCAASGNISYSRNMGWYRQAPGKERELVAAIDRGAITYYADSVKGRFTISRDNATNTVYLQIYSLKPEDTAVYYCAAEYHDRWDHRYWGQGTQVTVSS | high polyreactivity
HVQLQESGGGLVQAGGSLRLSCAASGSIFQATYMGWYRQAPGKEREFVASITYGSITNYADSVKGRFTIGRDNPKDTLYLQMNSLKPEDTAVYYCAVDRHYIPAFHYWGQGTQVTVSS | low polyreactivity
HVQLQESGGGLVQAGGSLRLSCAASGSISRNYDMGWYRQAPGKEREFVAGISGGAITYYADSVKGRFTISRDNAKNTVYLQMNSLKPEDTAVYYCAADTGVYQYHSYWGQGTQVTVSS | low polyreactivity
HVQLVESGAGLVQAGGSLRLSCAASGSIFGFYAMGWYRQAPGKERELVAAISSSGDSTYADSVKGRFTISRDNAKNTVYLQMNSLKPEDTAVYYCAADEDSRNWGQGTQVTVSS | high polyreactivity
HVQLVESGGGLFQAGGSLRLICAASGSTFGFYAMGWYRQAPGKERELVAAISRRTGSTYYADSVKGRFTISRDNAKNTVYLQMNSLKPEDTAVYYCNTDQSQKTVGYDYWGQGTQVTVSS | high polyreactivity
HVQLVESGGGLVQAGASLRLSCAASGRTFGRYAMGWSRQAPGKERELVAAIRSGGSTYYADSVKGRFTISRDNAKNTVYLQMNSLNPEDPAVYYCAADIARHLTGFAYDRLDYCGQGTQVTVSS | low polyreactivity
HVQLVESGGGLVQAGGSLRLICAASGGTFAGYSMGWYRQAPGKDRELVAAITYRSSTTYYADSVKGRFTISRDNAKNTVYLQMNSLKPEDTAVYYCAARTRGTGRNLDYWGQGTQVNVSS | high polyreactivity
HVQLVESGGGLVQAGGSLRLRCAASGFTIRSYVMGWYRQAPGKERELVAAIRRSGGSTYYADSVKGRFTISRDNAKNTVYLQMNSLKPEDTAVYYCNTVSGYGQPRGDYWGQGTQVTVSS | high polyreactivity
HVQLVESGGGLVQAGGSLRLSCAASGFTFPANAMGWYRQAPGKERELVAAISSSGGTYYADSVMGRFTISRDNAKNTVYLQMTSLKQEDTAVYYCAAYRFKYYYWGQGTQVSVSS | high polyreactivity
HVQLVESGGGLVQAGGSLRLSCAASGGIFVYYAMGWYRQAPGKVRELVAAISRSAASTYYADSVKGRFTISRDNAKNTVYLQMNSLKPEDTADYYCAAGQLTDKGGGDSWGQGTQVTVSS | low polyreactivity
HVQLVESGGGLVQAGGSLRLSCAASGIIFQRNAMGWYRQAPGKERELVAPISYSDGSTYYADSVKGRFTISRDNAKNTVYLQMNSLKPEDTAVYYCAARRFGRLALYFRFDYWGQGTQVTVSS | low polyreactivity
HVQLVESGGGLVQAGGSLRLSCAASGITFYDNVMGWYRQAAGKERELVAAITDSGGSTYYADSVKGRFTISRDNEKNTDYLQMNSLNPEDTAVYYCNAEVNAHWWWYIEDYWGQGTQVTVSS | low polyreactivity
HVQLVESGGGLVQAGGSLRLSCAASGPTFVTNAKGWYRQAPGKERELVAAISRSGGHTYYADSVKGRFTISRDIAKNTVYLQMNSLKPEDTAVYYCAKNRGPRTLYDYWGQGTQVTVSS | high polyreactivity
HVQLVESGGGLVQAGGSLRLSCAASGRIFASYPMGWYRPAPGNERELVAAISLSGGSTYYADSVKGRFTISRDNAKNTVYLQMNSLKPEDTAVYYCAAKNYRRYRDYYWGQGTQVTVSS | high polyreactivity
HVQLVESGGGLVQAGGSLRLSCAASGRIFRYAMAWYRQAPGNETELVAAISSSGGGTYYADSVKGRFTISRDNAKNTVNLQMNSLKREDTAVYYCIAEYGWRFDYWGQGTQVTVSS | high polyreactivity
HVQLVESGGGLVQAGGSLRLSCAASGRILHLNAMGWYRQAPGKERELVAAITRSGSSTYYADSVKGRFTISRDNAKNTVYLQMNSLKAEDTAVYYCAADWYPHSSAYDYWGQGTQVTVSS | low polyreactivity
HVQLVESGGGLVQAGGSLRLSCAASGSICSWYGMGWYRQAPGKERELVAAITWTGGSTYYADSVKGRFTISRDNAKNTVYLQMNSLKQEDTAVYYCSADLRYVGFYYWGQGTQVTVSS | high polyreactivity

Source: the nanobody polyreactivity screen of Harvey et al. (2022)
